{"source": "paper PMC8539926", "key": {"[1]": {"target": "CXCR4 (UniProt P61073)", "sequence (P61073 whole entry)": "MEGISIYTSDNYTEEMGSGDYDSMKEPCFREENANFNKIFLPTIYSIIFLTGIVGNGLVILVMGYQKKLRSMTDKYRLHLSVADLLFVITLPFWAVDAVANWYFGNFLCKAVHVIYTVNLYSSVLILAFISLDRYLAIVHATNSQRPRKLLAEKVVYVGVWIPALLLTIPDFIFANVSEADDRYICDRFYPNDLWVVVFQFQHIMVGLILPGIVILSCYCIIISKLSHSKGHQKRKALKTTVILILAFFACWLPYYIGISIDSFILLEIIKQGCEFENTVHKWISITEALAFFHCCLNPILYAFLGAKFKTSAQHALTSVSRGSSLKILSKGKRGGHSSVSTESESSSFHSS"}, "[2]": {"target": "CXCR4 (UniProt P61073)", "remark": "listed apart in the source"}, "[3]": {"target": "CXCR4 (UniProt P61073)", "remark": "listed apart in the source"}}, "data": [{"substance": "CXCL12 wild type (from UniProt P48061-2 22-89) (ligand)", "values": [{"measurement": "Emax of IP accumulation, COS-7 cells with CXCR4-eYFP and chimeric Gαqi protein, normalized to CXCL12 wt", "setting": "[1]", "value": 100, "unit": "%"}, {"measurement": "concentration of the best response, Transwell migration of Jurkat cells (endogenous CXCR4), 2 h, dilution series", "setting": "[2]", "value": 30, "unit": "nM"}]}, {"substance": "[S4V]-[V49A]-CXCL12-GPLS (from UniProt P48061-2 22-89) (ligand)", "values": [{"measurement": "fold regain of migration potential against compound 4, Jurkat cells (endogenous CXCR4), Transwell assay", "setting": "[3]", "value": 2, "unit": "fold"}]}, {"substance": "[S4V]-[V49A]-CXCL12-MMPCS-SBP (from UniProt P48061-2 22-89) (ligand)", "values": [{"measurement": "concentration of the migration maximum, Transwell migration of Jurkat cells (endogenous CXCR4), 2 h, dilution series", "setting": "[2]", "value": 700, "unit": "nM"}]}, {"substance": "[S4V]-[V49A]-CXCL12 (from UniProt P48061-2 22-89) (ligand)", "values": [{"measurement": "fold decrease in Jurkat cell migration (endogenous CXCR4) compared with CXCL12 wt, Transwell assay", "setting": "[3]", "value": 11, "unit": "fold"}]}]}
